Measurements taken from paper PMC4773887.

Columns and labels:
Assay in all cases: EMSA
Conditions in all cases: EMSA: 10 fmol DNA, 300 uM ddGTP, 3 mM dCTP; 6% native PAGE in 0.5x TBE, 35 min, 180 V; binding buffer, salt, pH and temperature not stated (ref 59)
[1] = tested on: HsPOLγA D274A (exo-);HsPOLγB WT (Homo sapiens;Homo sapiens)
[2] = tested on: HsPOLγA H1134A (pol-);HsPOLγB WT (Homo sapiens;Homo sapiens)
[3] = tested on: HsPOLγA Q1102A (pol-);HsPOLγB WT (Homo sapiens;Homo sapiens)
[4] = tested on: HsPOLγA WT;HsPOLγB WT (Homo sapiens;Homo sapiens)

## EMSA primer-template
[1]
  Kd: 2.8 nM
[2]
  Kd: 3.5 nM
[3]
  Kd: 3.8 nM
[4]
  Kd: 5.5 nM
